Target: Tle3^AIEC (type VI lipase effector 3 of adherent-invasive Escherichia coli LF82) (Escherichia coli AIEC LF82)
Test: SEC; purified Tle3 and Tli3 mixed at a molar ratio of 1:1.3; Superdex 200 16/60 in Hepes 10 mM pH 6.8, NaCl 150 mM; apparent molecular mass 100 kDa against a theoretical 101.9 kDa

## Tli3^AIEC (type VI lipase immunity protein 3 of adherent-invasive Escherichia coli LF82) (natural protein)
  stoichiometry N: 1

— publication PMC9860674
